For orientation: Kd means the constant that tells how readily two partners part at equilibrium. As a reminder, the koff is the first-order rate constant of dissociation. The term kon denotes a measure of how fast the partners come together. By t½ is commonly meant the time needed for the level to fall by half in the phase considered.

Consider two substances from US20200102389A1.

The target of experiment [1] is recombinant soluble human HLA-G β2M MHC class I complex, monomer (human). In words: SPR (Biacore), reference antibody against monomeric wt HLA-G complex. A general note: Surface plasmon resonance follows binding to a sensor surface in real time, without labels.
The target of experiment [2] is human HLA-G expressed on cells (JEG3 naturally; SKOV3 HLA-G+ and PA-TU-8902 HLA-G+ transfectants) (human) (UniProt P17693). Put plainly: flow cytometry, JEG3 cells pre-incubated with antibody, competitor ILT2-Fc chimera.
Experiment [3] addresses modified human HLA-G β2M MHC class I complex (HLA-G specific amino acids replaced by HLA-A consensus amino acids) (human). Put plainly: SPR (Biacore), reference antibody against degrafted HLA-G complex.

Take MEM/G9 (antibody): in experiment [1], the equilibrium dissociation constant (Kd) came out at 7.7 nM, the off-rate constant (koff) stood at 0.0011 s⁻¹, the kon came out at 150000 M⁻¹ s⁻¹ and the t½ is 10 min. In experiment [2], the Inhibition of ILT2 binding to Jeg3 cells is -27.9%. In experiment [3], this substance displayed a Kd of 300 nM, a koff of 0.036 s⁻¹, a kon of 120000 M⁻¹ s⁻¹ and a t½ of 0.3 min.
For the substance MEM-G/11 (antibody), in experiment [1], the Kd came to 12 nM, the koff was 0.00085 s⁻¹, the kon came out at 74000 M⁻¹ s⁻¹ and the t½ is 14 min. In experiment [3], the Kd is 13 nM, the koff amounted to 0.0012 s⁻¹, the kon came to 89000 M⁻¹ s⁻¹ and the t½ came to 10 min.
